Data published in patent US20240052061A1 (PURINOMIA BIOTECH, published 2024).
Changes are numbered by the printed parent chain. One block for each binder: values may come before it.

Columns and labels:
[1] = target: T1, human ecto-nucleoside triphosphate diphosphohydrolase-3 (NTPDase3) (human, UniProt O75355 1-529); assay: cell-based or functional assay
T1 sequence (looked up): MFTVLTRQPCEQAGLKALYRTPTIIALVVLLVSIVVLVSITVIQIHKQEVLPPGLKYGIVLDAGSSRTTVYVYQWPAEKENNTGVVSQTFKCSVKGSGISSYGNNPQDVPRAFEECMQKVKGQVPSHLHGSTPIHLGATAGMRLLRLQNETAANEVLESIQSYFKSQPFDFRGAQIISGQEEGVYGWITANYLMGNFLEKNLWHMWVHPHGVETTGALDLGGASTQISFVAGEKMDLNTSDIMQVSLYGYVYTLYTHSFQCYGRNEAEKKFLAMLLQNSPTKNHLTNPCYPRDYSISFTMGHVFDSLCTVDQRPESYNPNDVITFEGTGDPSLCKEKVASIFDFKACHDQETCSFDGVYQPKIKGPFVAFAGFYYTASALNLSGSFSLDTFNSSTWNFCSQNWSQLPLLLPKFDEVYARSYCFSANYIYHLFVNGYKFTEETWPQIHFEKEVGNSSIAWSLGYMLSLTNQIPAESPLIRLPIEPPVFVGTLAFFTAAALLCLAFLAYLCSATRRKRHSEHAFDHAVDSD

[2] = target: T1, human ecto-nucleoside triphosphate …; assay: cell-based or functional assay; remark: listed apart in the source
[3] = target: T1, human ecto-nucleoside triphosphate …; assay: flow cytometry on HEK293T-hENTPD3 cells, 30 minutes at 4 °C (FIG. 3)
Text: FIG. 3. Affinity of PBI #30 measured by flow cytometry using hENTPD3 positive HEK293T cells (stably transfected cells).

[4] = target: T1, human ecto-nucleoside triphosphate …; assay: flow cytometry on COS7-hENTPD3 cells, 30 minutes at 4 °C (FIG. 2)
Text: FIG. 2. Affinity of PBI #30 measured by flow cytometry using hENTPD3 positive COS-7 cells (stably transfected cells).

[5] = target: T1, human ecto-nucleoside triphosphate …; assay: flow cytometry on CHO-hENTPD3 cells, 30 minutes at 4 °C (FIG. 1)
Method: FIG. 1. Affinity of PBI #30 measured by flow cytometry using human ENTPD3 (hENTPD3) positive CHO cells (stably transfected cells). PBI #30 was serially diluted as indicated (top dose 333 nM) and incubated with CHO-hENTPD3 cells for 30 minutes at 4° C., followed by secondary antibody staining (anti-human IgG (Fc specific), Alexa Fluor® 488) for 30 minutes at 4° C. and flow cytometry analysis.

[6] = target: T1, human ecto-nucleoside triphosphate …; assay: flow cytometry on RT4 bladder cancer cells (endogenous hENTPD3), 30 minutes at 4 °C (FIG. 4)
Text: FIG. 4. Affinity of PBI #30 measured by flow cytometry using RT4 bladder cancer cells that endogenously express hENTPD3.

[7] = target: T1, human ecto-nucleoside triphosphate …; assay: flow cytometry on COS7-hENTPD3 cells, 2 hours at 37 °C (FIG. 19)
Text: (§1) FIG. 19. Affinity of the fully human anti-hENTPD3 monoclonal antibody PBI #30 hIgG1 measured by flow cytometry using CHO-hENTPD3 and COS7-hENTPD3 cells. Generally, FIG. 19 and following are directed to analyses of anti-hENTPD3 monoclonal antibody clones that have been further optimized exemplary (e.g., affinity maturation and isotype switching for PBI #30 and humanization of 8E1 and 38D5) and related detection methods.

[8] = target: T1, human ecto-nucleoside triphosphate …; assay: flow cytometry on CHO-hENTPD3 cells, 2 hours at 37 °C (FIG. 19)
Text: as §1

B1: 38D5 hIgG1 (antibody, V domains shown)
VH: EQQLLESGGGLVQPGGSLRLSCAASGIDFNNYGISWVRQAPGKGLEWIAYKYPGFGIRNYANSVKGRFTISSDNSKNTVYLQMNSLRAEDTAVYFCARGARYRHDDYGALNLWGPGTLVTVSS
VL: DIQMTQSPSTLSASVGDRVTITCQASQSVTNLLAWYQQKPGKPPKLLIYGASNLESGVPSRFSGSGSGTEFTLTISSLQPDDFATYYCQSGYYSANTFGPGTKVDIK
- ADCC EC50 (µg/mL), NFAT luciferase reporter Jurkat/hCD16a-158V [1]: 0.104 µg/mL
- ADCC fold increase in relation to parental clone at 1 µg/mL [1]: 1.2 fold
- CDC % of Maximal Cytotoxicity [1]: 4%
- CDC EC50 [1]: 0.694 µg/mL
- Enzyme Activity Inhibition Capacity: % of Maximal Inhibition [1]: 43%
- Enzyme Activity Inhibition Capacity: EC50 [1]: 0.22 µg/mL

B3: 38D5 Hu/Ra (antibody, V domains shown)
VH: QELVESGGGLVQPGGSLKLSCKASGIDFNNYGISWVRQAPGKGLEWIAYKYPGFGIRNYANSVKGRFTISSDNAQNTVFLQMTSLAASDTATYFCARGARYRHDDYGALNLWGPGTLVTVSS
VL: DIVMTQTPPSVSAAVGGTVTINCQASQSVTNLLAWYQQKPGQPPKLLIYGASNLESGVPSRFRGSGSGTEFTLTISGMKAEDAATYYCQSGYYSANTFGAGTKVGIKR
- ADCC EC50 (µg/mL), NFAT luciferase reporter Jurkat/hCD16a-158V [1]: 0.104 µg/mL
- CDC % of Maximal Cytotoxicity [1]: 1%
- CDC EC50 [1]: 1.73 µg/mL
- Enzyme Activity Inhibition Capacity: % of Maximal Inhibition [1]: 44%
- Enzyme Activity Inhibition Capacity: EC50 [1]: 0.31 µg/mL
- EC50 of hENTPD3 enzyme activity inhibition, CHO-hENTPD3 cells, antibody 30 minutes [2]: 15.9 µg/mL
- enzyme activity inhibition capacity, maximal inhibition [2]: ~40%

B6: 4F9 Hu/Ra (antibody, V domains shown)
VH: QSVEESGGRLVTPGTPLTLTCTVSGFSLSSYAMGWVRQAPGKGLEFIGIITYNGNTYYASWAKGRFPISKTSSTTVDLKMTSPTTEDTATYFCARARYGGYSTNSYYLNIWGPGTLVTVSS
VL: DVVMTQTPASVSAAVGGTVTINCQASENIYRILAWYQQKPGQRPKLLIYGASNLETGVPSRFKGSGSGTEYTLTISDLECDDAATYYCQGVLYNSNDSTFGGGTEVVVKG
- ADCC EC50 (µg/mL), NFAT luciferase reporter Jurkat/hCD16a-158V [1]: 0.064 µg/mL
- Enzyme Activity Inhibition Capacity: % of Maximal Inhibition [1]: 12%

B7: 37H1 Hu/Ra (antibody, V domains shown)
VH: B6 VH with M33V, N55A, K63E
VL: B6 VL with Y93W
- ADCC EC50 (µg/mL), NFAT luciferase reporter Jurkat/hCD16a-158V [1]: 0.044 µg/mL
- Enzyme Activity Inhibition Capacity: % of Maximal Inhibition [1]: 9%

B9: 8E1 Hu/Ra (antibody, V domains shown)
VH: B6 VH with T51S, N53S, T90N
VL: B6 VL with S12E, I32V, T56S, E70D, L92V, N96D, T99A
- ADCC EC50 (µg/mL), NFAT luciferase reporter Jurkat/hCD16a-158V [1]: 0.075 µg/mL
- CDC % of Maximal Cytotoxicity [1]: 13%
- CDC EC50 [1]: 0.239 µg/mL
- Enzyme Activity Inhibition Capacity: % of Maximal Inhibition [1]: 5%

B10: 16D4 Hu/Ra (antibody, V domains shown)
VH: B6 VH with N55G
VL: B6 VL with I32V, N94D, S95N
- ADCC EC50 (µg/mL), NFAT luciferase reporter Jurkat/hCD16a-158V [1]: 0.053 µg/mL
- Enzyme Activity Inhibition Capacity: % of Maximal Inhibition [1]: 9%

B14: 3E9 Hu/Ra (antibody, V domains shown)
VH: QSLEESGGDLVKPGASLTLTCTASGFSFSSSDWICWVRQAPGKGLEWIACIYAGSIGGAYFASWVNGRFTISRASSTTVTLQMTSLTAADTATYFCARSSSNGRLKLDQFDLWGPGTLVTVSS
VL: AYDMTQTPASVEVAVGGTVTINCQASQSIGGWLSWYRQKPGQPPSLLIYKASTLASGVSSRFSGTGSRTHFTLTINGVQCADAATYYCQQGSAADVANTFGGGTEVVVKG
- ADCC EC50 (µg/mL), NFAT luciferase reporter Jurkat/hCD16a-158V [1]: 0.044 µg/mL
- Enzyme Activity Inhibition Capacity: % of Maximal Inhibition [1]: 6%

More lines, now with the values ahead:

- Enzyme Activity Inhibition Capacity: % of Maximal Inhibition [1]: 41%
B2: 38D5 hIgG4 (antibody, V domains shown)
VH: B1 VH
VL: B1 VL

- ADCC EC50 (µg/mL), NFAT luciferase reporter Jurkat/hCD16a-158V [1]: 0.045 µg/mL
- Enzyme Activity Inhibition Capacity: % of Maximal Inhibition [1]: 15%
B4: 44H5 Hu/Ra (antibody, V domains shown)
VH: QEQLEESGGDLVKPEGSLTLTCTASGFDSSSTYYMCWVRQAPGKGLEWSGCIYTGGLTYYASWAKGRFTISKTSSTTVTLQMTSLTAADTATYFCASYIGSRFYMPGFSLWGPGTLVTVSS
VL: AIVMTQTPSSKSVPVGDTVTINCQASESIYSNNRLAWFQQKPGQPPKLLIYLASTLASGVPSRFKGSGSGTQFTLTISDVVCDDAATYYCAGYKGSSTDGTAFGGGTEVVVKG

- ADCC EC50 (µg/mL), NFAT luciferase reporter Jurkat/hCD16a-158V [1]: 0.059 µg/mL
- Enzyme Activity Inhibition Capacity: % of Maximal Inhibition [1]: 9%
B5: 38D12 Hu/Ra (antibody, V domains shown)
VH: QSVEESGGRLVTPGTPLTLTCTVSGFSLSSYVINWVRQAPGKGLEWIGTISSSGSTYYASWAKGRFTISTTSSTTVDLKITSPTTEDTATYFCARGADGAFISDYFNIWGPGTLVTVSS
VL: DIVMTQTPSSVSAAVGGTVTIKCQANENIDSWLAWYQQKPGQRPKLLIYYASTLASGVPSRFKGSGSGTEYTLTISDLECADGATYYCQSYDTISDYGVGFGGGTEVVVKG

- ADCC EC50 (µg/mL), NFAT luciferase reporter Jurkat/hCD16a-158V [1]: 0.072 µg/mL
- Enzyme Activity Inhibition Capacity: % of Maximal Inhibition [1]: 12%
B8: 42D8 Hu/Ra (antibody, V domains shown)
VH: B6 VH with G54S, S60N
VL: B6 VL with R43P

- ADCC EC50 (µg/mL), NFAT luciferase reporter Jurkat/hCD16a-158V [1]: 0.434 µg/mL
- ADCC fold increase in relation to parental clone at 1 µg/mL [1]: 2.8 fold
- Enzyme Activity Inhibition Capacity: % of Maximal Inhibition [1]: 91%
- Enzyme Activity Inhibition Capacity: EC50 [1]: 0.82 µg/mL
- enzyme activity inhibition capacity, maximal inhibition [2]: ~100%
B11: PBI #30af4 hIgG1 (antibody, V domains shown)
VH: QVQLQESGGGLIQPGGSLRLSCAASGFTSSSSDYAMSWVRQAPGKGLEWVSSISGSGVSTYYADSVKGRFTISRDNSKNTLYVQMTSLTAEDTAVYYCAKVVGYSVYDYYYHYALDVWGQGTTVTVSS
VL: QPVLTQPPSASGTPGQRVTISCSGSSSNIGSNTVNWYQQLPGTAPKLLIYSDNQRPSGVPDRFSGSKSGTSASLTISGLKTEDEAGYYCQSDDTSNVVFGGGTKVTVL

- ADCC EC50 (µg/mL), NFAT luciferase reporter Jurkat/hCD16a-158V [1]: 1.44 µg/mL
- Enzyme Activity Inhibition Capacity: % of Maximal Inhibition [1]: 76%
- Enzyme Activity Inhibition Capacity: EC50 [1]: 2.51 µg/mL
- Kd [3]: 8.4 nM
- Kd [4]: 11.9 nM
- Kd [5]: 5.53 nM
- Kd [6]: 10.1 nM
- ADCC EC50, NFAT luciferase reporter Jurkat/hCD16a-158V [2]: 0.092 µg/mL
- EC50 of hENTPD3 enzyme activity inhibition, CHO-hENTPD3 cells, antibody 30 minutes [2]: 17.3 µg/mL
- Kd [7]: 1.82 nM
- Kd [8]: 2.96 nM
B12: PBI #30 hIgG1 (antibody, V domains shown)
VH: B11 VH with V58G, V106M
VL: QPVLTQPPSASGTPGQRVTISCSGSSSNIGSNTVNWYQQLPGTAPKLLIYSNNQRPSGVPDRFSGSKSGTSASLTISGLKTEDEAGYYCQSYDTSNVVFGGGTKVTVLG
notes: Fully human IgG1; also called clone PBI #30; original clone PBI #30 hIgG1

- Enzyme Activity Inhibition Capacity: % of Maximal Inhibition [1]: 95%
- Enzyme Activity Inhibition Capacity: EC50 [1]: 1.33 µg/mL
- enzyme activity inhibition capacity, maximal inhibition [2]: ~100%
B13: PBI #30af4 hIgG4 (antibody, V domains shown)
VH: B11 VH
VL: B11 VL
